For one substance, Kd results are on record in PMC3548785.

pKd: −log10 of the molar value.

The series concerns the target His-ASF/SF2 (UniProt Q07955). Kind of series: intrinsic tryptophan fluorescence quenching. Particulars: 100 mM KCl, 20 mM Tris-HCl pH 7.5, room temperature, 100 nM His-ASF/SF2, excitation 280 nm, emission 340 nm.

Sequence of His-ASF/SF2 (Q07955 whole entry): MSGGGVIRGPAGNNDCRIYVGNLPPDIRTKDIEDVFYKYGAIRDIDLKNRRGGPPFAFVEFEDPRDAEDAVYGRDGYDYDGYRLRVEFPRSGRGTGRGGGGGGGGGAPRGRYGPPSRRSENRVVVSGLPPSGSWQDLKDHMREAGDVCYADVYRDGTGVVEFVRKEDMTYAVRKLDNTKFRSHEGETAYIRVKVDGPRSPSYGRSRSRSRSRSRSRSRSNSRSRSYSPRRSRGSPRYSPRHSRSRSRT

On to Genomic HDV RNA, for which the pKd (usually −log10 of the Kd, conventionally taken in molar units) is 7.40.
